# Measured values: the RNAGym collection of RNA variant scans (doi:10.1073/pnas.2313332121)
# B1: TPR t1 (parent)
# chain: GACCAAUCUGCCCUCAGAGCUCGAGAACAUCUUCGGAUGCAGAGGAGGCAGGCUUCGGUGGCGCGAUAGCGCCAACGUCCUCAACCUCCAAUGCAUCCCACCACAUGAUGAUGCCUGAAGAGCCUUGGUUUUUUG
# Variants of: B1
# Assay: polymerase ribozyme fitness, log enrichment relative to wild type (log ratio); higher = more active; in vitro selection for triplet polymerase activity
# Method in brief: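 Fitness is a logarithmic measure of how a genotype enriched relative to the wild type, with replicate averages weighted by inverse variance. The logarithm uses base 2, and enrichment came from Illumina sequencing of input and output libraries. Those libraries were PCR-built, transcribed mutants of each subunit of a heterodimeric triplet polymerase ribozyme, passed through one triplicate in vitro selection round that included frozen incubation at −7 °C, gel excision of extended constructs and streptavidin-bead capture. Genotypes were kept only if they had ≥10 input reads and ≥1 read per output.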
row,Variant,polymerase ribozyme fitness (log ratio)
1,C3A C4G G10A G61U A74C C123G,-4.94
2,U9C C12G G60C U78C,-1.6
3,A27G C115U,-4.58
4,C89U C124A,0.152
5,G71A C89G,-2.03
6,A6G A24G G36U C49A,-3.79
7,G10C A43U U129C,-3.15
8,C62A C101U,-2.3
9,A18G U78C,-2.98
10,C11U A74U U109G U116A,-6.7
11,C3A A5C G48A C101A G122A,-1.86
12,C15A A16C C72A,-2.92
13,A16U A18U U133A,-4.63
14,A46U G48U U112G G135C,-3.81
15,G39U A41U,-2.97
16,G113A G135U,-2.05
17,U87A A119U G128A U131G,-1.07
18,G60C A121G,1.05
19,A18U G42U,-2.23
20,C8U A95G C102U U106A,-3.3
21,G39C G120U,-1.35

row,Variant,polymerase ribozyme fitness (log ratio)
1,U9A A26U,-1.79
2,C15U G17A G19A U38G G69C A75U U92G U109C C124U U134G,-5.8
3,A121C G128A,0.0676
4,C4G A18U,-4.14
5,A95U A119U U125A G127U,-2.7
6,C12A G42U C88G C114U,-4.43
7,C53G C104U A111G,0.815
8,A2U C13U A50G G63A U112C,-1.43
9,U21C A37G C62A G117A,-3.01
10,A2G U9C C13U A18U C56G A95G,-1.78
11,C8A G44U G52A,-0.478
12,C88A U106A U109A U126A U131G,-5.92
13,C11G A18U G42C C89A,-0.965
14,C72G G110C,-2.42
15,A41U C49U G69A,-6.56
16,C11A C20U C34A C53A C94G A121U,-3.61
17,G39U C86A U106A,-2.01
18,A66C C70A,-3.75
19,A2G G63C U116A,-4.03
20,G69A U116G,-4.55
21,G44A A50G C72A C73U G110A,-4.26

row,Variant,polymerase ribozyme fitness (log ratio)
1,G71U G113U,-1.67
2,G117C U130G,-3.7
3,A6U A18G G93A,-5.43
4,C73U U112A,1.41
5,C70U G122A U126A,-3.62
6,G47A A50U G57U C82A,-2.37
7,A37G C53A C56A A90U A91C G113C,-2.55
8,A41C U126G U130G,-4.83
9,C70U U116A,-3.33
10,A83G G120A,0.774
11,G42A G69A,-5.77
12,U30C A50C,-2.91
13,C40A G57C U81G C82G C97A A111U,-6.79
14,C56G C72U U130A,-1.31
15,A37U A43C G71U C79U U112A U116G U134C,-6.04
16,G44C C114A,-2.01
17,G17C C72U U78G U116A A119C G120A,-5.61
18,C11U C56A C104A C115G,-6.27
19,A84U C88U G93A G128A,-2
20,G44A C101A U109A,-5.41
21,C13U C28A G110C G120A,-1.9

row,Variant,polymerase ribozyme fitness (log ratio)
1,G10C C11U C13A A37U C70U,-0.31
2,C22G A84G,-4.29
3,C88U C89A A121U G122A,-1.15
4,G44U C79G A91C C115A,-5.13
5,A18G U54A C88G A111C G113C U125A,-3.51
6,G47A G51C C98A C102U C115U G127U,-7.84
7,A5U C115U,-1.6
8,C72U U92C,-0.581
9,A118U,0.282
10,C20U G36A G48C G113A,0.28
11,A91C U129A,-2.78
12,C102A G120U U130G,-2.39
13,C70U C88A C115U,-3.07
14,G42C G44U G63U C123A G128C,-3.33
15,U78G C98U,-0.646
16,C15A U33C C70U A111U,-5.94
17,C70A C79A,-3.11
18,G19U A50U C124G,-2.97
19,C15U A27C C85A G117C C124G G128A U129G,-6.66
20,C56U U116G,-2.23
